Measured values taken from the RNAGym collection of RNA variant scans (doi:10.1073/pnas.2313332121).

B1: TPR t1 (parent)
chain: GACCAAUCUGCCCUCAGAGCUCGAGAACAUCUUCGGAUGCAGAGGAGGCAGGCUUCGGUGGCGCGAUAGCGCCAACGUCCUCAACCUCCAAUGCAUCCCACCACAUGAUGAUGCCUGAAGAGCCUUGGUUUUUUG

Variants of: B1
Test: polymerase ribozyme fitness, log enrichment relative to wild type (log ratio); higher = more active; in vitro selection for triplet polymerase activity
Procedure, shortened: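 Genotype fitness is the logarithm of its enrichment divided by wild-type enrichment, using inverse-variance-weighted averages of replicates. That logarithm is base 2. Enrichment was measured by Illumina sequencing of input and output libraries from one triplicate in vitro selection round, with frozen incubation at −7 °C, on PCR-built, transcribed mutant libraries of each subunit of a heterodimeric triplet polymerase ribozyme, retaining genotypes with ≥10 input reads and ≥1 read per output.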

Variant | polymerase ribozyme fitness (log ratio)
A43U C49A | -1.86
A43U C49G C72A C86A | -2.29
A43U C53U G77U C85G U106A | -5.13
A43U C56A | -1.69
A43U C56A C85G | -3.95
A43U C56A C85G U133A | -4.39
A43U C56G C64U | -2.1
A43U C56G C114U | -2.92
A43U C56G G71U G120A | -4.58
A43U C70A | -3.22
A43U C80U C99U G120C | -6.23
A43U C86U | -2.52
A43U C94A | -1.82
A43U C102A C114A | -5.12
A43U C104A A118U | -4.29
A43U C114G G117C U126A | -5.06
A43U C123G | 0.036
A43U G44A C115A C124A U125C U132A | 0.582
A43U G44C G63A | -2.96
A43U G44U A74U U87A | -5
A43U G44U G48A G122A | -2.63
A43U G45A C53U C56G A84U | -2.19
A43U G45A C56G G113A | -0.304
A43U G45U C115G | -3.44

Variant | polymerase ribozyme fitness (log ratio)
A43U G47C U92C G93C A121G | -0.371
A43U G47U C72U U92A C104G C114G | -7.84
A43U G48U G61A | -1.54
A43U G52U A68G | -4.56
A43U G57C C98U U126A | -4.59
A43U G58U U126G | -3.62
A43U G60C C82A G113A G128C | -4.68
A43U G60U C64G C73G C85U C98G C115U | -6.57
A43U G60U C82A G113A G128C | -4.46
A43U G63C U78C | -3.61
A43U G63U G113U A119G | -2.34
A43U G69U A91C | 0.416
A43U G71A | -2.46
A43U G71U U116C G128C | -5.7
A43U G93C G117A | -4.2
A43U G110A | -3.03
A43U G113A | -1.27
A43U G120C | -0.477
A43U G120C C124U | -0.575
A43U U54A C73U G77C | -1.92
A43U U54A G122U | -2.82
A43U U59A U134G | -1.56
A43U U129G | -2.71
A43U U131A | -1.44

Variant | polymerase ribozyme fitness (log ratio)
G44A A46U A91G U92A | -5.83
G44A A46U C85U C86G | -4.71
G44A A46U G47C A74G | -1.99
G44A A46U G47C A74G G93A | -3.83
G44A A50G C73U | -0.0837
G44A A68G | -3.75
G44A A103G A105U G117A | -6.51
G44A A121U | 1.03
G44A C49A C85G C94A | -3.35
G44A C49G U55G C85U U106G G107C C115G | -6.1
G44A C49U A50C U78C U133G G135U | -1.75
G44A C49U G71A G117C U133G | -5.02
G44A C49U U106G | -5.12
G44A C53A C56A | -1.42
G44A C53U | -2.11
G44A C56A C89U C97U U116A | -3.63
G44A C62A A111G | -3.93
G44A C64U | -1.11
G44A C70U C89A A100U U133C | -3.92
G44A C72G | -1.16
G44A C72G C80U C101U | -2.59
G44A C72U | -1.55
G44A C82G | -1.66
G44A C88U | -1.23

Variant | polymerase ribozyme fitness (log ratio)
G44A C89U C104A U106A | -2.1
G44A C94U | -0.754
G44A C94U U126G | -2.82
G44A C98A A111U | -5.83
G44A C124A | 0.456
G44A G45U G61U A83C | -1.59
G44A G48C C56A | -1.29
G44A G51A G63U U125A | -7.95
G44A G51C | -5.22
G44A G52A C56U | -1.35
G44A G52U G122A C123U C124G U130G | -1.46
G44A G57A A91G C101G G113U | -4.86
G44A G60C | 0.513
G44A G60U C72U A90U | -1.55
G44A G61C U78C C79G U112G | -3.26
G44A G61U | -0.0446
G44A G63A | -2.44
G44A G69C | -2.21
G44A G71A A91G U116A G122A C124U | -4.96
G44A G71C | -2.21
G44A G71C C89U | -1.03
G44A G113A U130C | -2.43
G44A G120C | 0.014
G44A G120U | -1.14

Variant | polymerase ribozyme fitness (log ratio)
G44A U55A C70A | -3.95
G44A U59A G60U C89U A91G C104A C114U | -6.21
G44A U59A G63A C89G C115A C124A U129A | -5.52
G44A U96G | -2.12
G44C A46G | -0.686
G44C A50C G60U | -1.12
G44C A50G G52U U54C U92C C124A | 0.995
G44C C53U C76U | -1.48
G44C C56U C79A C101U | -2.56
G44C C72U U78G C115G U133G | -1.84
G44C C73A C115U | -2.64
G44C C73U | -0.621
G44C C76U U78A | -1.08
G44C C88U | -0.458
G44C C99U G110A | -6.64
G44C C101A | -1.76
G44C C102A | -3.4
G44C C102G A108C C114G G122A | -6.67
G44C G48U C53A G61C U112G | -6.03
G44C G61A A84C | -0.524
G44C G63A A121G | 0.865
G44C G63C A91G | -2.62
G44C G63U C79U | -1.08
G44C G69U A121C | 1.9

Variant | polymerase ribozyme fitness (log ratio)
G44C G69U U78C A95U C101U | -0.81
G44C G71A C82U A83C | -2.53
G44C G93A | -0.685
G44C G93U | -2.85
G44C G122A | -1.4
G44C G127A U130G | -2.95
G44C G135U | -1.88
G44C U54A C64U C82U C114G | -4.69
G44C U54A G61U C85U U87A C102A | -4.76
G44C U59C | -1.09
G44C U87G | -0.724
G44C U92G U112C | -0.938
G44C U106G C124G G135A | -0.579
G44C U112G G120U G127C | -5.08
G44C U125A | -1.22
G44U A46C | -2.3
G44U A46G C62U C94G | -4.05
G44U A46G G117A C124U | -1.75
G44U A50U | -2.28
G44U A50U C101A C115A | -2.8
G44U A68G C85A | -5.43
G44U A74U C88A U133G | -2.41
G44U A90G U132C | -0.625
G44U A95G C99U | -4.84

Variant | polymerase ribozyme fitness (log ratio)
G44U A95U G117C | -4.64
G44U A108G | -2.57
G44U A121U | 0.755
G44U C49A G77U G120C U130G | -2.08
G44U C53A C70A | -2.06
G44U C53A G63A G113A | -2.93
G44U C53G G61C G93A | -2.01
G44U C53G G61C U81G C102U U132A | -3.53
G44U C56A | -1.54
G44U C56A G57A C104U U106G | -2.38
G44U C56G U92A C115A | -4.27
G44U C62A | -2.41
G44U C64G | -7.29
G44U C64U C82U U106G G120A | -1.25
G44U C70A | -2.87
G44U C70U U96A C104A | -4.6
G44U C72U C115U U129G | -4.96
G44U C72U U96A U106G G117U A119U | -6.08
G44U C89G | -0.509
G44U C102G | -8.01
G44U C123U | 0.929
G44U G45A U54A | -3.42
G44U G45C U78C | -3.51
